The target of one assay is AHNAK (UniProt Q09666). Put plainly: co-IP with mouse IgG control, mass spectrometry; lysate of C-FLAG B3GNT2 cells.
The target in the next assay is CTSD (UniProt P07339). Described as above.
In another assay the target is EEF1A1 (UniProt P68104). The description is as above.
The next assay has as its target ENO1 (UniProt P06733). Described as above.
For another assay, the target named is FABP5 (UniProt Q01469). Described as above.
The next assay has as its target HBA1 (UniProt P69905). The assay is described as above.
For another assay, the target named is HNRNPA1 (UniProt P09651). The assay is described as above.
HNRNPA1, sequence (P09651 2-372 limits assumed): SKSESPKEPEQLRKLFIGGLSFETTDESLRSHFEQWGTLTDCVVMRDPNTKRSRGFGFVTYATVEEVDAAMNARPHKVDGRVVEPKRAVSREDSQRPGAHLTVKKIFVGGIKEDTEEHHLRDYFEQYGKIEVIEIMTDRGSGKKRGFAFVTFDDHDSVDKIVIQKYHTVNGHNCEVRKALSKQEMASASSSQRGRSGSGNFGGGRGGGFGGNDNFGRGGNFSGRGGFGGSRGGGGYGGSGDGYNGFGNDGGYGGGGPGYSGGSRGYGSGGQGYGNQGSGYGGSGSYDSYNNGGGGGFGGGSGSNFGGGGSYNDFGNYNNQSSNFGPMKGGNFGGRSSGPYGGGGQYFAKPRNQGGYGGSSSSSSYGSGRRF
A further assay addresses HNRNPF (UniProt P52597). The assay is described as above.
The target of a further assay is PCMT1 (UniProt P22061). The description is as above.
PCMT1, sequence (P22061 2-227 limits assumed): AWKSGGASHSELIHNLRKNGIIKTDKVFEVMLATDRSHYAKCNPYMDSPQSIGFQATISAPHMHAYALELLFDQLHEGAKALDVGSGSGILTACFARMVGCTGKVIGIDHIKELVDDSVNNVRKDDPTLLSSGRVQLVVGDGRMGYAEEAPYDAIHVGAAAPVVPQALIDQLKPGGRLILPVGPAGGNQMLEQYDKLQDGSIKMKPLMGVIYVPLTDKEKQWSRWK
The target in the next assay is PPIA (UniProt P62937). Described as above.
PPIA, sequence (P62937 2-165 limits assumed): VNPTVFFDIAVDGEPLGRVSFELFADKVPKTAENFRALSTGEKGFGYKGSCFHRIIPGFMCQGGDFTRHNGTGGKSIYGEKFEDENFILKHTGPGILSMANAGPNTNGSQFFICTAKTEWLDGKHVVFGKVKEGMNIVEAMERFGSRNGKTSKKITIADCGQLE
For another assay, the target named is RCC2 (UniProt Q9P258). The assay is described as above.
RCC2, sequence (Q9P258 whole entry): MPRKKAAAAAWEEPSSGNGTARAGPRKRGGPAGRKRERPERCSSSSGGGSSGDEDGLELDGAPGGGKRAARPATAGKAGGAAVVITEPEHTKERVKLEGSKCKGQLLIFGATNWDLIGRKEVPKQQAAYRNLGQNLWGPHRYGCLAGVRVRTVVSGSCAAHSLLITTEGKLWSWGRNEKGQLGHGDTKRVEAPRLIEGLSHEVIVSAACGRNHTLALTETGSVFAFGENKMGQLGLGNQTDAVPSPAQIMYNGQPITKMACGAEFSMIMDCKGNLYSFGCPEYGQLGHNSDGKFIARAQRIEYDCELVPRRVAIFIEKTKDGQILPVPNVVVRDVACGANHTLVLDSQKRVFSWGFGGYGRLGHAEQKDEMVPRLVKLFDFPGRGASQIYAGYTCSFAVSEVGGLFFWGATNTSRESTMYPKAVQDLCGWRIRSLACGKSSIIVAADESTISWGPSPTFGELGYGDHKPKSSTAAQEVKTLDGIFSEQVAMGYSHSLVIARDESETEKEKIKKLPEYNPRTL
The target in the next assay is RPL10A (UniProt P62906). The assay is described as above.
Another assay deals with RPL21 (UniProt P46778). The description is as above.
The next assay deals with RPL31 (UniProt P62899). The description is as above.
A further assay deals with RPL35A (UniProt P18077). Described as above.
A further assay addresses RPL36 (UniProt Q9Y3U8). Described as above.
In another assay the target is RPL36A (UniProt P83881). The assay is described as above.
In the next assay the target is RPLP2 (UniProt P05387). Described as above.
RPLP2, sequence (P05387 whole entry): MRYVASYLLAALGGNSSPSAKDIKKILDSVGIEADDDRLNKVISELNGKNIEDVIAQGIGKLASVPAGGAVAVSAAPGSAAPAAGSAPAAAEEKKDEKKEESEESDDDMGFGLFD
Another assay deals with RPN1 (UniProt P04843). The assay is described as above.
RPN1, sequence (P04843 24-607 limits assumed): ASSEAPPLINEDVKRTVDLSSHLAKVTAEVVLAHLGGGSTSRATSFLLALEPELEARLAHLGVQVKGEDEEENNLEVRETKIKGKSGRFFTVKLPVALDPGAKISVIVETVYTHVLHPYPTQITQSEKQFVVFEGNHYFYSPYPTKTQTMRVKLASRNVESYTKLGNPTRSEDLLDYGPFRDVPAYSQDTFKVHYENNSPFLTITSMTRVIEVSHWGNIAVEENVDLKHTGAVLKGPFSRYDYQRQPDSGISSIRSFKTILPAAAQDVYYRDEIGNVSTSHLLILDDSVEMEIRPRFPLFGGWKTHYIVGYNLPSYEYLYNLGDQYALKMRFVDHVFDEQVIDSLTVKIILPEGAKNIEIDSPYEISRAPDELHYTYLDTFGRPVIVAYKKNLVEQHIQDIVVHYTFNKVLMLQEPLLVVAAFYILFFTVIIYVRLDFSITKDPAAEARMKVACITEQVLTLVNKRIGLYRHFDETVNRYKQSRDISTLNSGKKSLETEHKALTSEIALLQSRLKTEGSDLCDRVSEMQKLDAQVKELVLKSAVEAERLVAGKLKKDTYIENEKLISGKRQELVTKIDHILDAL
For the next assay, the target named is RPS11 (UniProt P62280). The assay is described as above.
The next assay addresses RPS15A (UniProt P62244). The assay is described as above.
The target of another assay is RPS17 (UniProt P08708). The assay is described as above.
The target of another assay is S100A9 (UniProt P06702). The assay is described as above.
A further assay addresses SERPINB12 (UniProt Q96P63). The description is as above.
In another assay the target is SLIRP (UniProt Q9GZT3). The description is as above.
Another assay concerns the target STRAP (UniProt Q9Y3F4). Described as above.
In another assay the target is TPI1 (UniProt P60174). Described as above.
The next assay addresses TRIM21 (UniProt P19474). The description is as above.
For another assay, the target named is UBA52 (UniProt P62987). The assay is described as above.
The target of a further assay is YBX3 (UniProt P16989). Described as above.
The target of another assay is YWHAZ (UniProt P63104). Described as above.
YWHAZ, sequence (P63104 whole entry): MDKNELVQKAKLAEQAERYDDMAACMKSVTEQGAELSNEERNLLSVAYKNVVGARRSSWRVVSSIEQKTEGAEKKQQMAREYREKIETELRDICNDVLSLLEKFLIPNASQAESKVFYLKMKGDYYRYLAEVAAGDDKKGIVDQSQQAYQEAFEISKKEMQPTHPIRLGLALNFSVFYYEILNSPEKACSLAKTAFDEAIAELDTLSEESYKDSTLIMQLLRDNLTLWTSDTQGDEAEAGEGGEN
A further assay addresses COPA (human) (UniProt P53621). As to the kind of experiment: co-IP with anti-FLAG, N-FLAG B3GNT2, mass spectrometry.
Another assay concerns the target CPT1A (human) (UniProt P50416). Described as above.
The target of another assay is EMILIN1 (human) (UniProt Q9Y6C2). The assay is described as above.
The next assay deals with KCTD5 (human) (UniProt Q9NXV2). The description is as above.
KCTD5 (human), sequence (Q9NXV2 2-234 limits assumed): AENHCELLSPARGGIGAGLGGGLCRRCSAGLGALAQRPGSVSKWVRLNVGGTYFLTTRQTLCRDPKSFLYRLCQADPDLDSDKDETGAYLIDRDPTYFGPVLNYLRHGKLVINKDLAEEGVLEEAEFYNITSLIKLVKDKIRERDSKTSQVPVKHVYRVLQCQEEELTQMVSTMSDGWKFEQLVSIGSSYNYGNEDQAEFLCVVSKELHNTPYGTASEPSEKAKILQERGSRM
The target of assay [1] is P0AA25.2 [thioredoxin: P0AA25]. The description is as above.
P0AA25.2 [thioredoxin: P0AA25], sequence (P0AA25 2-109): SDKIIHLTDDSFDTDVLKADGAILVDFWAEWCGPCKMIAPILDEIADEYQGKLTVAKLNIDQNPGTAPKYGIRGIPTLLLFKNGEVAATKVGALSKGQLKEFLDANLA
The target in a further assay is RPL17 (human) (UniProt P18621). The description is as above.
The next assay has as its target RPL8 (human) (UniProt P62917). Described as above.
In a further assay the target is TELO2 (human) (UniProt Q9Y4R8). The assay is described as above.

COPA (human), sequence (P53621 whole entry): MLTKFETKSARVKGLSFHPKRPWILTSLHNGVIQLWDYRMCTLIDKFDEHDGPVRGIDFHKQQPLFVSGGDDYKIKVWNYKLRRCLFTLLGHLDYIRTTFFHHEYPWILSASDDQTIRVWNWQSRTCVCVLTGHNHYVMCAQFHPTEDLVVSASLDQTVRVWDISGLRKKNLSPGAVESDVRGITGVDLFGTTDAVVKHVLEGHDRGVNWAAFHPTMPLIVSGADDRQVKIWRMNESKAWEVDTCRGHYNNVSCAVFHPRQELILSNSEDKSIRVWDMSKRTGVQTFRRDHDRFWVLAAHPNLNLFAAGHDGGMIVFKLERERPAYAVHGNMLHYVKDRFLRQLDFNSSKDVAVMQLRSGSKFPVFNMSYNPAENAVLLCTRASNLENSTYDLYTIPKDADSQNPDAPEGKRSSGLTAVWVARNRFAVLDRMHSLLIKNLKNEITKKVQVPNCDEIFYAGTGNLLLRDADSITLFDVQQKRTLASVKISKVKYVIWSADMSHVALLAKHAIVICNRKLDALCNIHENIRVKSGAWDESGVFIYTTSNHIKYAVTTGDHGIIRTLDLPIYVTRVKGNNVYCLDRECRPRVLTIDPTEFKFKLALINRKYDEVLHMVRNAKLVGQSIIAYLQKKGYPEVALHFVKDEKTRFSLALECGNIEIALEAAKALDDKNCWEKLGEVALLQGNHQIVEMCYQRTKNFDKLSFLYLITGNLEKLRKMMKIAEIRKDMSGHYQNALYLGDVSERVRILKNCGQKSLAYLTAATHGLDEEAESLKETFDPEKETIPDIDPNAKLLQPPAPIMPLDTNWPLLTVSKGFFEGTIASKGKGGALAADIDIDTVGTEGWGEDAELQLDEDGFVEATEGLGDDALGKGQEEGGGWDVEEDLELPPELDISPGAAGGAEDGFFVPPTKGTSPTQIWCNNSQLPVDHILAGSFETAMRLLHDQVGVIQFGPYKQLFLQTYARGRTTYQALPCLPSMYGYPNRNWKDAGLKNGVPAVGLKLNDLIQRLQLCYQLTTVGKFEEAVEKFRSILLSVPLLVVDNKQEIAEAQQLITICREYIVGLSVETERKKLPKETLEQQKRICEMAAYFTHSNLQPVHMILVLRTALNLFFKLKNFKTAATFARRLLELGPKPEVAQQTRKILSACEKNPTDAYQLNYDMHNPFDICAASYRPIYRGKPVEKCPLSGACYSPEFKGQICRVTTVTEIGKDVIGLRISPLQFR
SERPINB12, sequence (Q96P63 other isoform, or with tags, fused parts or gaps limits assumed): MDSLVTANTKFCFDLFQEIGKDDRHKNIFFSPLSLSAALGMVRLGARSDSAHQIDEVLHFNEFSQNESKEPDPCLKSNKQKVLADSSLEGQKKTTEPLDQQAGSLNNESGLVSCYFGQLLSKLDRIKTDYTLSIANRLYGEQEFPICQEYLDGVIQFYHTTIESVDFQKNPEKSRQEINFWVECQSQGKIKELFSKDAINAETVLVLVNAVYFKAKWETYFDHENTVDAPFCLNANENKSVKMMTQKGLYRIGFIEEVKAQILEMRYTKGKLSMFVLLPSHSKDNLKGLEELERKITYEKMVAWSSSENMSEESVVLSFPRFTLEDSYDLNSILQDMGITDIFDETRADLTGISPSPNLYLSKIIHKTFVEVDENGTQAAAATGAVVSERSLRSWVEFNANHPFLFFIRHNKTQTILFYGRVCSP
ENO1, sequence (P06733 2-434 limits assumed): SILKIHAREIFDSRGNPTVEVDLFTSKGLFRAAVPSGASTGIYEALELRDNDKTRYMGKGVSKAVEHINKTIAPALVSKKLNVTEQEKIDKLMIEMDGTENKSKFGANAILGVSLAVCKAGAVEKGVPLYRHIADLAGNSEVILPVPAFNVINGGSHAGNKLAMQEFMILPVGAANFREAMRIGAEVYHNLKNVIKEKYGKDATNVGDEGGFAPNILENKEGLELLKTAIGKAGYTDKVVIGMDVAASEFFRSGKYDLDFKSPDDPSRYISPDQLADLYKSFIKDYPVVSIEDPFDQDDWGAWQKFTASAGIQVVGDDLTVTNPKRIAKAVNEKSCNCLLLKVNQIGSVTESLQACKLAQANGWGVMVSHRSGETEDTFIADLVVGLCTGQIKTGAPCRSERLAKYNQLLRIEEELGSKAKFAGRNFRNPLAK
FABP5, sequence (Q01469 2-135 limits assumed): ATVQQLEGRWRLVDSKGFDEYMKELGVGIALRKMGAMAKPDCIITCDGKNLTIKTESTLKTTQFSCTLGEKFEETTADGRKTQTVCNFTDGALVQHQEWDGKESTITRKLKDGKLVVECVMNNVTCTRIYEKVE

In the case of “IgG control (Millipore Sigma 12-371) (antibody)”, the co-IP mass spectrometry count turned out to be 2 in the assay with AHNAK; 0 with CTSD; 5 with EEF1A1; 2 with ENO1; 0 in the assay with FABP5; 0 with HBA1. Also, the co-IP mass spectrometry count with HNRNPA1 was 4; in the assay with HNRNPF it was 3; with PCMT1 it was 0; with PPIA, 0; in the assay with RCC2, 0; in the assay with RPL10A it was 0. The co-IP mass spectrometry count is 5 with RPL21; 0 in the assay with RPL31; 0 with RPL35A; 0 with RPL36; 0 in the assay with RPL36A; 0 with RPLP2. For the same substance, the co-IP mass spectrometry count with RPN1 worked out at 0; with RPS11, 9; with RPS15A it was 2; with RPS17, 5; with S100A9, 5; in the assay with SERPINB12, 0. In addition, the co-IP mass spectrometry count with SLIRP came to 0; with STRAP it was 0; with TPI1, 0; in the assay with TRIM21, 0; in the assay with UBA52 it was 7; in the assay with YBX3, 0. For the same substance, the co-IP mass spectrometry count with YWHAZ came to 0.
As for “N-terminal FLAG tagged B3GNT2 (from UniProt Q9NY97 1-397) (enzyme)”, the co-IP/MS count, N-term FLAG was 2 in the assay with COPA (human), 2 in the assay with CPT1A (human), 7 in assay [1] and 3 in the assay with RPL17 (human). The co-IP mass spectrometry count is 2 with EMILIN1 (human), 2 with KCTD5 (human), 10 with RPL8 (human) and 2 with TELO2 (human).

(Values after patent US20240261333A1, “NOVEL TARGETS FOR ENHANCING ANTI-TUMOR IMMUNITY” (THE BROAD INSTITUTE, INC., priority 2021, published 2024).)
